Assay results taken from US12590158 (XIYUAN ANJIAN MEDICINE SHANGHAI, dated 2026).

Legend:
[1] = biological target: T1, full-length human TrkA expressed on cells (human, UniProt P04629 33-796); assay: cell-based or functional assay
[2] = biological target: T1, full-length human TrkA expressed on …; assay: cell-based or functional assay; remark: listed apart in the source
[3] = biological target: T1, full-length human TrkA expressed on …; assay: cell-based or functional assay; remark: listed apart in the source
[4] = biological target: fusion protein (fused to human Fc) containing only the portion of human TrkA extracellular region that binds NGF (TrkA 192-402) (ACROBiosystems TRA-H5258) (human) (UniProt P04629); assay: ELISA, coated human TrkA (192-402)-hFc
[5] = biological target: T2, TrkA extracellular region (33-417) protein comprising human Fc (ACROBiosystems TRA-H5259) (human, UniProt P04629 33-417); assay: ELISA, coated human TrkA (33-417)-hFc, anti-mouse Fc-HRP
T2 construct: range 33-417; Bought fusion protein; also called human TrkA (33-417); human TrkA extracellular region
Description: (§1) Example 2: ELISA Detection of the Binding of Murine Anti-TrkA Antibodies to Human TrkA The binding abilities of the anti-TrkA antibodies were detected by using a TrkA extracellular region (33-417) protein comprising human Fc (Beijing ACROBiosystems Co., Ltd., TRA-H5259). Each well of a 96-well microtiter plate was coated with 50 ng of human TrkA, washed and blocked, and then added with serially diluted antibodies, and incubated at room temperature for 1 hour. After washing three times, horseradish peroxidase-conjugated goat anti-mouse Fc antibody (Biolegend, 405306) was added and incubated at room temperature for 1 hour. After washing three time, tetramethylbenzidine (TMB, Biolegend, 421101) was added for color development. 1M HCl was used to terminate the color development, and the absorbance values were read at 450 nm with a microplate reader.

[6] = biological target: T3, rat TrkA extracellular region fusion protein (fused to human Fc) (Yiqiao Shenzhou 80243-R03H) (rat, UniProt P35739 33-418); assay: ELISA, plate coated with rat TrkA extracellular region-hFc, HRP goat anti-mouse Fc detection
T3 construct: extracellular domain; Bought fusion protein
Description: as §1
(§2) In addition, the species cross-reactivities of anti-TrkA antibodies were detected with monkey TrkA (Hangzhou Haoyang Biotechnology Co., Ltd., HSP037-05), rat TrkA (Beijing Yiqiao Shenzhou Technology Co., Ltd., 80243-R03H), mouse TrkA (Beijing Yiqiao Shenzhou Technology Co., Ltd., 51103-M02H) extracellular region fusion protein (fused to human Fc).

[7] = biological target: T2, TrkA extracellular region (33-417) …; assay: competition ELISA, coated TrkA (33-417)-hFc, antibody titrated, competitor biotin-labeled human NGF
Description: Each well of a 96-well microtiter plate was coated with 50 ng of TrkA extracellular region (33-417) protein fused to human Fc, washed three times and blocked with 3% BSA for 1 hour. […] Each well was added with 100 μl and incubated at room temperature for 30 minutes. […] Streptavidin-labeled horseradish peroxidase (Streptavidin-HRP, Biolegend, 405210) was added and incubated for 0.5 hours. After washing three times, TMB was added to the plate, and the absorbance at 450 nm was read by a microplate reader after the color development was terminated.

[8] = biological target: T2, TrkA extracellular region (33-417) …; assay: BLI (ForteBio Octet Red96), TrkA (33-417)-hFc captured on anti-human Fc sensor, antibody in solution
Text: Example 3: Affinity Assay of Murine Anti-TrkA Antibodies Binding to Human TrkA The affinities of the antibodies were detected with Biomolecular Interaction Detection Platform (ForteBio Octet Red96 (PALL)).
Human TrkA extracellular region (33-417) protein containing human Fc tag was fixed onto a chip by using an anti-human Fc capture sensor (Fortebio, 18-5088), and then bound to gradient concentrations of anti-TrkA antibody.

[9] = biological target: T4, mouse TrkA extracellular region fusion protein (fused to human Fc) (Yiqiao Shenzhou 51103-M02H) (mouse, UniProt Q3UFB7 34-420); assay: ELISA, plate coated with mouse TrkA extracellular region-hFc, HRP goat anti-mouse Fc detection
T4 construct: extracellular domain; Bought fusion protein
Description: as §1, §2

[10] = biological target: T5, human TrkB extracellular region protein (Yiqiao Shenzhou 10047-H03H) (human, UniProt Q16620 32-430); assay: ELISA, plate coated with human TrkB extracellular region protein, HRP goat anti-mouse Fc detection
T5 construct: extracellular domain; Bought protein
Description: as §1
(§3) Example 7: Detection of the Binding of Murine Anti-TrkA Antibodies to TrkA Proteins of the Same Family Each well of a 96-well microtiter plate was coated with 50 ng of human TrkA extracellular region protein, human TrkB extracellular region protein (Beijing Yiqiao Shenzhou Technology Co., Ltd., 10047-H03H), human TrkC extracellular region protein (Beijing Yiqiao Shenzhou Technology Co., Ltd., 10048-H03H). The bindings of the anti-TrkA antibodies to human TrkA and the two proteins of the same family were detected according to the method described in Example 2.

[11] = biological target: T6, human TrkC extracellular region protein (Yiqiao Shenzhou 10048-H03H) (human, UniProt Q16288 32-429); assay: ELISA, plate coated with human TrkC extracellular region protein, HRP goat anti-mouse Fc detection
T6 construct: extracellular domain; Bought protein
Description: as §1, §3

[12] = biological target: T7, human TrkB expressed on CHO cells (TrkB/CHO, ThermoFisher K1491) (human, UniProt Q16620 32-822); assay: flow cytometry on TrkB/CHO cells, FITC goat anti-human Fc
T7 construct: whole, on cells
Description: (§4) CHO-K1 was used as a negative control. The binding of the humanized antibodies to the four cell lines was detected by flow cytometry.
(§5) The cells were cultured according to the manufacturer's instruction. The cells were harvested in the logarithmic growth phase, re-suspended in flow buffer (PBS+2% FBS, pH 7.4), and added into 96-well plate, 10^5 cells per well (50 µl). 50 µl of 100 µg/mL humanized anti-TrkA antibody was added, incubated at room temperature for 60 min, and centrifuged at 1200 rpm. The supernatant was discarded and the cells were washed 3 times. FITC-labeled goat anti-human Fc antibody (Abeam, ab97224) was diluted to 5 µg/mL with flow buffer and used to re-suspend the cells, incubated at room temperature for 30 min in the dark, centrifuged, and the supernatant was discarded. After washing 3 times, the cells were re-suspended with 7AAD solution (Biolegend, 420403), incubated for 10 min at room temperature, and the binding of the antibody was detected with a flow cytometer (BioRad, ZE5).

[13] = biological target: T8, human TrkC expressed on CHO cells (TrkC/CHO, ThermoFisher K1515) (human, UniProt Q16288 32-839); assay: flow cytometry on TrkC/CHO cells, FITC goat anti-human Fc
T8 construct: whole, on cells
Description: as §4, §5

T4 sequence (Q3UFB7 34-420, stated change not applied): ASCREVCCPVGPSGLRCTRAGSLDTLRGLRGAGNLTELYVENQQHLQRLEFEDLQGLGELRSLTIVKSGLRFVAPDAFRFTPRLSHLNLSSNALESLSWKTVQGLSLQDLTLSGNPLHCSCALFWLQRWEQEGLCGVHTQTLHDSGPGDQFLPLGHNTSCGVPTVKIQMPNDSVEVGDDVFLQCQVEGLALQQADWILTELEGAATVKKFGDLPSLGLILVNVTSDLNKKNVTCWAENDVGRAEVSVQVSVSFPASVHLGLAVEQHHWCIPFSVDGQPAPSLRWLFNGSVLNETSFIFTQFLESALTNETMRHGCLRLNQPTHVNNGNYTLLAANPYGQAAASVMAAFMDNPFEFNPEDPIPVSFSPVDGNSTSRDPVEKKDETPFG
T5 sequence (Q16620 32-430): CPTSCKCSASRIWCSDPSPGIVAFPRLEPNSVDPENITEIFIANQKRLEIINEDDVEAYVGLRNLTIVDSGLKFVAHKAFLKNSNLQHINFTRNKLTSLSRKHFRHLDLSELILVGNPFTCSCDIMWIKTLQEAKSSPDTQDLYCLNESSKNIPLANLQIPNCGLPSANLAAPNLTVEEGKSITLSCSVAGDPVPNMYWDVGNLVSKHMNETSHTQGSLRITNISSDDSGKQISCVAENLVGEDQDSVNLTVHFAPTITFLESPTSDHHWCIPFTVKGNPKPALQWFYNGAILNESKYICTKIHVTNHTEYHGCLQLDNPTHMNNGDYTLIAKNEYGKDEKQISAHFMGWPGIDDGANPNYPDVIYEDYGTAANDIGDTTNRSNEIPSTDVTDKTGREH
T3 sequence (P35739 33-418, stated change not applied): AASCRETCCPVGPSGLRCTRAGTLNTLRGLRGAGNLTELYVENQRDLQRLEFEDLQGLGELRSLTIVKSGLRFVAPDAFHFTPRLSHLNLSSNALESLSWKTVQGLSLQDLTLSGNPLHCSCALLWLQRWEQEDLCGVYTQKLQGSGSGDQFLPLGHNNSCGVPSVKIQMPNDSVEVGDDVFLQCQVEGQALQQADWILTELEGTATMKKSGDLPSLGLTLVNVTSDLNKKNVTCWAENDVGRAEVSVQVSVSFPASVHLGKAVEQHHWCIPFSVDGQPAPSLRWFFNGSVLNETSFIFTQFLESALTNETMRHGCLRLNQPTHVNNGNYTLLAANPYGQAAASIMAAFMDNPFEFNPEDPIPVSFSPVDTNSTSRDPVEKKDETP
T2 sequence (P04629 33-417 limits assumed): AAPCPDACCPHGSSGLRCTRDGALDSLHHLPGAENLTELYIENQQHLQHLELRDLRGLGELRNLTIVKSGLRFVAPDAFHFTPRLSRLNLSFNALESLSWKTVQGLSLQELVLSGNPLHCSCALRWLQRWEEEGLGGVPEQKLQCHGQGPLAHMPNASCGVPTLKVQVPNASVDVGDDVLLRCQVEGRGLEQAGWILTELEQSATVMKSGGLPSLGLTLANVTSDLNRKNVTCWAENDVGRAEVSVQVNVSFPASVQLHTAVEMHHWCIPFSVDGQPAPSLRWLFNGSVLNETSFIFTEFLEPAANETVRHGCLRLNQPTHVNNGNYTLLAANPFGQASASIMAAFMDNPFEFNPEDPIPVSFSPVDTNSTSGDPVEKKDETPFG
fusion protein (fused to human Fc) containing only the portion of human TrkA extracellular region that binds NGF (TrkA 192-402) (ACROBiosystems TRA-H5258) (human), sequence (P04629 192-402 limits assumed, form in doubt): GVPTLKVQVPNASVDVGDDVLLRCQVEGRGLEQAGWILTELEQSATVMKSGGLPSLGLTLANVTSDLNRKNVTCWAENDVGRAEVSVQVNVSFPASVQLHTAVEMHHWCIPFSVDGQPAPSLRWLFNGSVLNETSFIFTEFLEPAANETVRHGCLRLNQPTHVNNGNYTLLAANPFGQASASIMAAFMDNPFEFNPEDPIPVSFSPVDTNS
T1 sequence (P04629 33-796): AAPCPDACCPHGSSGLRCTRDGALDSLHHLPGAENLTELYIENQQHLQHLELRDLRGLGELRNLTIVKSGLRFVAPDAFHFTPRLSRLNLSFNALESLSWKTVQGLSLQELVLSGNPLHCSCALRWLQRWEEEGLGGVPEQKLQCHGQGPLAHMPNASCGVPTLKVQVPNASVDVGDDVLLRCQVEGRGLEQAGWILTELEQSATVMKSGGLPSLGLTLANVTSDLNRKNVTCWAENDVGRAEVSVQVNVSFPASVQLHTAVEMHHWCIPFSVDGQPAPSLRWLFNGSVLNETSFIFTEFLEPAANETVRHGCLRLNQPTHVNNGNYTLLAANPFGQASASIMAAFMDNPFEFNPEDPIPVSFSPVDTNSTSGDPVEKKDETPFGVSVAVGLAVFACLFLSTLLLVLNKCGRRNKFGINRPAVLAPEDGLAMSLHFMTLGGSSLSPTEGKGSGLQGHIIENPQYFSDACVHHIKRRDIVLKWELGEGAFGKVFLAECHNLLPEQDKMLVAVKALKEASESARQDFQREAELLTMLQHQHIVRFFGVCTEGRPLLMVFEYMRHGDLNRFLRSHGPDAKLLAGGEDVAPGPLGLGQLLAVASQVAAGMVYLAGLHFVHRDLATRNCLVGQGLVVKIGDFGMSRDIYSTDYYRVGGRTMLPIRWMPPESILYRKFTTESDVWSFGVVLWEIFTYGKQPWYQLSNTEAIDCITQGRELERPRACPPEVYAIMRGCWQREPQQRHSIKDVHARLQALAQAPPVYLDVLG
T8 sequence (Q16288 32-839): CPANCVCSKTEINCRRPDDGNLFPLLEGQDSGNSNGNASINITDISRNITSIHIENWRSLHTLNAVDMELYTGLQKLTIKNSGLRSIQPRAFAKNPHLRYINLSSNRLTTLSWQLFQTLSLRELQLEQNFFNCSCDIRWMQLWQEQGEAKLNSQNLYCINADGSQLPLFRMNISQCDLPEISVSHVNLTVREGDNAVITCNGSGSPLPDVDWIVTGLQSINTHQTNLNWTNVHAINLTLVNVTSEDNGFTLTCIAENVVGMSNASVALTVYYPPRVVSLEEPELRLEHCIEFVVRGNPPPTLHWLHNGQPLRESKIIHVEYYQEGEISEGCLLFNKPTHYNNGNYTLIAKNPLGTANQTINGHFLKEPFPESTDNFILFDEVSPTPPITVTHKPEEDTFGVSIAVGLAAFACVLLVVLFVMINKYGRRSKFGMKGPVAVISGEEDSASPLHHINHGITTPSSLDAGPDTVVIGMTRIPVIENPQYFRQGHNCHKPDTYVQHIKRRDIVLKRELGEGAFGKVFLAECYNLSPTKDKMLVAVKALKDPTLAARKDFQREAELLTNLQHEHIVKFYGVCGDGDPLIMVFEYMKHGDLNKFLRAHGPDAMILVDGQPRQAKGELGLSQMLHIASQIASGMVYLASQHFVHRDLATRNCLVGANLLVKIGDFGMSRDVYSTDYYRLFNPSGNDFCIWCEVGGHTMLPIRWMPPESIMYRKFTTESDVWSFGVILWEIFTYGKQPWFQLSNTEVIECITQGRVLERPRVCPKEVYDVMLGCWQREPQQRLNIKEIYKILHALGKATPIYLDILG
T7 sequence (Q16620 32-822): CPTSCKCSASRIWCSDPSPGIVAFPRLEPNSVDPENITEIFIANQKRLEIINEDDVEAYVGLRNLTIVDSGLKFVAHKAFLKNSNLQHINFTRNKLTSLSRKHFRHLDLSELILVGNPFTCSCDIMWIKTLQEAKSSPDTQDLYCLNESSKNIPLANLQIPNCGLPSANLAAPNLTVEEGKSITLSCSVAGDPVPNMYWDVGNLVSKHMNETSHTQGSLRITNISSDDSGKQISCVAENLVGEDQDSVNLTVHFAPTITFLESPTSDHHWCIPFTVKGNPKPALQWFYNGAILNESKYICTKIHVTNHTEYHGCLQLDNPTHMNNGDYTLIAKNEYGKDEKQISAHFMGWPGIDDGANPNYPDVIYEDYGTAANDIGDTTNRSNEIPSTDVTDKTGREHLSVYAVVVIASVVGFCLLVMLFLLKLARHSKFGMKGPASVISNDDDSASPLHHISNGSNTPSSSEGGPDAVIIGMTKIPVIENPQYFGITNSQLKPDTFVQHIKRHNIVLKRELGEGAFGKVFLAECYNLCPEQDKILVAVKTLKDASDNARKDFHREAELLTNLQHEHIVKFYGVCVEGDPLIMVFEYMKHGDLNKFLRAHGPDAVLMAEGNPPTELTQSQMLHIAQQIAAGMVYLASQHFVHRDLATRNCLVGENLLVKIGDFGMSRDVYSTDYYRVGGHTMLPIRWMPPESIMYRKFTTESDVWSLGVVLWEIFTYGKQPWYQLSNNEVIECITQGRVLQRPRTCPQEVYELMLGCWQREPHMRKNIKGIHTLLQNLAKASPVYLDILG

| Binder | inhibition of NGF-induced TrkA/Ba/F3 cell proliferation at 2.5 µg/mL (16.67 nM) or higher [1] | IC50 of inhibiting NGF-induced TF-1 cell proliferation [2] | IC50 of inhibiting NGF-induced TrkA/Ba/F3 cell proliferation [3] | EC50 [4] | EC50 [5] | binding result [6] | IC50 [7] | Kd [8] | koff [8] | kon [8] | binding result [9] | binding result [10] | binding result [11] | binding result [12] | binding result [13] |
| --- | --- | --- | --- | --- | --- | --- | --- | --- | --- | --- | --- | --- | --- | --- | --- |
| anti-TrkA antibody 33H5 (antibody, V domains shown, Murine monoclonal antibody purified from hybridoma medium by protein G) VH: QVQLQQPGAELVKPGASVQLSCKASGYTFTSYWIHWVKQRPGQGLEWIGEINPNNGLTNYIEKFKNKATLTIDKSSNTAYMQLSGLTPEDSAVYYCAKYGNYVAFAYWGQGTLVTVSA VL: DIQMTQSPASLSASVGDTVTITCRASENIYTYLAWYQQKQGKSPQLLVHNTKTLAEGVPSRFSGSGSGTQFSLKISSLQPEDFGTYYCQHHYGVPLTFGAGTKLELK | 100% | 2.14 nM | 0.413 nM | 0.173 nM | 0.204 nM | binds | 1.5 nM | 0.0162 nM | 2.09e-05 s⁻¹ | 1.29e+06 M⁻¹ s⁻¹ | binds | no binding (tested: 66.67 nM) | no binding (tested: 66.67 nM) | – | – |
| humanized anti-TrkA antibody 42F5-15 (antibody, V domains shown, 42F5-01 with NG55-56 of the VH mutated to NA55-56) VH: QVQLVQSGAEVKKPGASVKVSCKSSGYTFTNYWMHWVRQAPGQGLEWMGEIYPNNARVNYNEKFKNRVTMTVDISISTAYMELSRLRSDDTAVYYCARSRYDPMEDWGQGTTVTVSS VL: DVQLTQSPSSLSASVGDRVTITCSASSSVGYMHWYQQKPGKAPKRLIYDTSKLASGVPSRFSGSGSGTDYTLTISSLQPEDFATYFCQQWSSIPLTFGQGTRLEIK | – | – | – | – | – | – | – | – | – | – | – | – | – | no binding | no binding |
| anti-TrkA antibody 5A3 (antibody, V domains shown, Murine monoclonal antibody purified from hybridoma medium by protein G) VH: QVQLQQSGAELMKPGASVKISCKAIGYTFSRYWIEWVKQRPGHGLEWIGEILPGRGVTNYNENFKGKATFTVDISSTTTYIQFSSLTSEDSAVYYCARSNYGDYDFWGQGTSLTVSS VL: QTVVTQESALTTSPGETVTLTCRSSSGAVTTSNHANWVQEKPDHLFTSLMGGTNNRAPGVPARFSGSLIGDKAALTITGAQTEDEAIYFCALWYSNHWVFGGGTKLTVL | 100% | 6.49 nM | 0.422 nM | 0.154 nM | 0.242 nM | binds | 1.76 nM | 0.0155 nM | 1.88e-05 s⁻¹ | 1.21e+06 M⁻¹ s⁻¹ | binds | no binding (tested: 66.67 nM) | no binding (tested: 66.67 nM) | – | – |
| anti-TrkA antibody 26E9 (antibody, V domains shown, Murine monoclonal antibody purified from hybridoma medium by protein G) VH: QVQLQQPGAELVKPGASVKLSCKSSGYTFTNYWMHWVKQRPGQGLEWIGEIYPSNGRTNYNEKFKNRATLTVDISSSTAYMQLSSLTSEDSAVYYCARSRYDPMEDWGQGTSVTVSS VL: QIVLTQSPAIMSASPGEKVTMTCSASSSVGYMHWYQQKSGTSPKRWIYDTSKLASGVPTRFSGSGSGTSYSLTISSMEAEDAATYYCQQWSSIPLTFGSGTKLEIK | 100% | 1.39 nM | 1.54 nM | 0.068 nM | 0.099 nM | binds | 2.04 nM | 0.0267 nM | 2.46e-05 s⁻¹ | 923000 M⁻¹ s⁻¹ | binds | no binding (tested: 66.67 nM) | no binding (tested: 66.67 nM) | – | – |

Continued, values first:

| inhibition of NGF-induced TrkA/Ba/F3 cell proliferation at 2.5 µg/mL (16.67 nM) or higher [1] | IC50 of inhibiting NGF-induced TF-1 cell proliferation [2] | IC50 of inhibiting NGF-induced TrkA/Ba/F3 cell proliferation [3] | EC50 [4] | EC50 [5] | binding result [6] | IC50 [7] | Kd [8] | koff [8] | kon [8] | binding result [9] | binding result [10] | binding result [11] | binding result [12] | binding result [13] | Binder |
| --- | --- | --- | --- | --- | --- | --- | --- | --- | --- | --- | --- | --- | --- | --- | --- |
| 100% | 1.09 nM | 1.65 nM | 0.071 nM | 0.114 nM | binds | 1.9 nM | < 0.001 nM | < 1e-07 s⁻¹ | 992000 M⁻¹ s⁻¹ | binds | no binding (tested: 66.67 nM) | no binding (tested: 66.67 nM) | – | – | anti-TrkA antibody 11G8 (antibody, V domains shown, Murine monoclonal antibody purified from hybridoma medium by protein G) VH: QVQLQQPGAELVKPGASVKLSCKASGYTFTSYWMHWVKQRPGQGLEWIGEINPNNGLTNYDEKFKTKATLTIDKSSRTAYIQLSSLTSEDSAVYYCAKYGNYVAFAFWGQGTLVTVSA VL: DIQMTQSPASLSATVGETVTITCRASENIYSYVAWYQQKQGKSPQLLVHNAKTLAEGVPSRFSGSGSGTQFSLKINGLHPEDFGSYYCQHHYGIPLTFGAGTKLELK |
| 100% | 1.3 nM | 1.25 nM | 0.134 nM | 0.128 nM | binds | 2.35 nM | 0.00218 nM | 2.07e-06 s⁻¹ | 947000 M⁻¹ s⁻¹ | binds | no binding (tested: 66.67 nM) | no binding (tested: 66.67 nM) | – | – | anti-TrkA antibody 42F5 (antibody, V domains shown, Murine monoclonal antibody purified from hybridoma medium by protein G) VH: QVQLQQPGAELVKPGASVKLSCKSSGYTFTNYWMHWVRQRPGQGLEWIGEIYPNNGRVNYNEKFKNRATLTVDISSSTAYMQLSSLTSEDSAVYYCARSRYDPMEDWGQGTSVTVSS VL: QVVLTQSPAIMSASPGEKVTMTCSASSSVGYMHWYQQKSGTSPKRWIYDTSKLASGVPTRFSGSGSGTSYSLTISSMEAEDAATYFCQQWSSIPLTFGSGTRLEIK |
